In patent US20070022497A1, “Trans-2-enoyl-coa reductase gene of euglena gracilis” (BASF Plant Science GmbH, priority 2004, published 2007):

T1: trans-2-enoyl-CoA reductase (TER) (Euglena gracilis, UniProt Q5EU90)
T1 construct: One kilogram of Euglena gracilis strain Z cells grown under aerobic conditions for one week was used as starting material; endogenous in cells; host or cells: Euglena gracilis strain Z, aerobically grown; enzyme purified by chromatography (crude extract to Superdex 200)
T1 sequence (Q5EU90 137-539 limits assumed): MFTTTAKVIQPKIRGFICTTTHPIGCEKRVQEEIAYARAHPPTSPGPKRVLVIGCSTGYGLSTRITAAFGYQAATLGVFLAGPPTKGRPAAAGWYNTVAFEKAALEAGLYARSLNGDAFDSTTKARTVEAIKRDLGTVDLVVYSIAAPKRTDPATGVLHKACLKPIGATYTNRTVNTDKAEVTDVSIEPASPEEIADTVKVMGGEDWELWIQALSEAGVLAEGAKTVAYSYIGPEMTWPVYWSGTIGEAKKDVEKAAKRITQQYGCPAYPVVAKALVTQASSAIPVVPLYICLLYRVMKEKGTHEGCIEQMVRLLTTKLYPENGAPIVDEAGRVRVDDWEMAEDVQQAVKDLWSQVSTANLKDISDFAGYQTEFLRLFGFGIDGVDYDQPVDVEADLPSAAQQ

B1: ter2-protein: His-tagged truncated TER protein (from aa 136, 45 kDa) expressed in E. coli (protein, listed as Euglena gracilis)
chain: T1 sequence (Q5EU90 137-539 limits assumed)
modifications: His tag
notes: His-tagged truncated TER protein (from aa 136, 45 kDa) expressed in E. coli
B2: SEQ ID NO: 4: shortened Ter gene ORF; protein SEQ ID NO: 5 with 28 amino acid N-terminal stretch predicted to give mitochondrial targeting (nucleic acid, listed as Euglena gracilis)
DNA: ATGGGCCGCCGCGGGGCCGCAGTGGGCGGCGCCGCTCGTGGCCGCGGCCTCCTCCGCACTGGCGCTGTGGTGGTGAACATCGCCACCGCGGTCACCCACCTGGCCCCCCCGATGGCGATGTTCACCACCACAGCGAAGGTCATCCAGCCCAAGATTCGTGGCTTCATCTGCACGACCACCCACCCGATCGGCTGTGAGAAGCGGGTCCAGGAGGAGATCGCGTACGCCCGTGCCCACCCGCCCACCAGCCCTGGCCCGAAGAGGGTGCTGGTCATCGGCTGCAGTACCGGCTACGGGCTCTCCACCCGCATCACCGCTGCCTTCGGCTACCAGGCCGCCACGCTGGGCGTGTTCCTGGCGGGCCCCCCGACGAAGGGCCGCCCCGCCGCGGCGGGCTGGTACAACACCGTGGCGTTCGAGAAGGCCGCCCTGGAGGCCGGGCTGTACGCCCGGAGCCTTAATGGCGACGCCTTCGACTCCACAACGAAGGCGCGGACGGTCGAGGCGATCAAGCGGGACCTCGGCACGGTGGACCTCGTGGTGTACAGCATCGCCGCCCCGAAGCGGACGGACCCTGCCACCGGCGTCCTCCACAAGGCCTGCCTGAAGCCCATCGGCGCCACGTACACCAACCGCACTGTGAACACCGACAAGGCGGAGGTGACCGACGTCAGCATTGAGCCGGCCTCCCCCGAAGAGATCGCGGACACGGTGAAGGTGATGGGCGGGGAGGACTGGGAGCTCTGGATCCAGGCGCTGTCGGAGGCCGGCGTGCTGGCGGAGGGGGCCAAGACGGTGGCGTACTCCTACATCGGCCCCGAGATGACGTGGCCTGTCTACTGGTCCGGCACCATCGGGGAGGCCAAGAAGGACGTGGAGAAGGCTGCCAAGCGCATCACGCAGCAGTACGGCTGCCCGGCGTACCCGGTGGTGGCCAAGGCCTTGGTCACCCAGGCCAGCTCCGCCATCCCGGTGGTGCCGCTCTACATCTGCCTGCTGTACCGCGTTATGAAGGAGAAGGGCACCCACGAGGGCTGCATCGAGCAGATGGTGCGGCTGCTCACCACGAAGCTGTACCCCGAGAACGGGGCCCCCATCGTCGATGAGGCCGGACGTGTGCGGGTGGATGACTGGGAGATGGCGGAGGATGTGCAGCAGGCTGTTAAGGACCTCTGGAGCCAGGTGAGCACTGCCAACCTCAAGGACATCTCCGACTTCGCTGGGTATCAAACTGAGTTCCTGCGGCTGTTCGGGTTCGGCATTGACGGCGTGGACTACGACCAGCCCGTGGACGTGGAGGCGGACCTCCCCAGTGCTGCCCAGCAGTAG
modifications: CDS (1)..(1329)

Legend:
[1] = target: T1, trans-2-enoyl-CoA reductase (TER); assay: trans-2-enoyl-CoA reductase enzyme activity assay (decrease of absorbance at 340 nm with Crotonyl-CoA and NADH); format: biochemical; settings: His-Tag protein from ter2-pET28 in E. coli BL21 (DE3), purified via Ni-NTA agarose
Method: Enzyme activity was measured as described by Inui, H. et al. (1984) Eur. J. Biochem. 142: 121-126 with the following modifications. The assay mixture contained 100 mM potassiumphosphate buffer pH 6,2; 0,75 mM Crotonyl-CoA (Sigma); 0,4 mM NADH and 2 μM FAD and enzyme. The assay mixture without substrate was preincubated for 10 min at 30° C. The reaction was also performed at 30° C. and started with the addition of substrate. The activity was determined by the decrease of absorbance at 340 nm. The final assay volume was 1 ml (Ultrospec 2000 Spectrophotometer, Amersham Biosciences) or 200 μl (GENios microplate reader, Tecan Instruments, Maennedorf, Switzerland).

Arabidopsis thaliana = assay: Total seed lipid content of transgenic Arabidopsis plants over-expressing the TER gene (gas chromatography of fatty acids); format: in vivo; settings: for Total seed lipids, % fatty acids: mean of two extractions, empty vector controls 28.3 ± 0.4
Method: Using floral dip essentially as described by Clough and Bent, 1998, plants are transformed with Agrobacterium tumefaciens C58C1 harboring the plasmid pSUN300-USP-TER-OCS respectively. Entire plants (inflorescence and rosette) are submerged for 20-30 sec in the infiltration media consisting of 5% sucrose, 0.02% Silwet L-77 (Osi Specialties, Danbury, Conn.) and re-suspended transformed A. tumefasciens cells. Plants are then transferred to a growth chamber with a photoperiod of 16 h of light at 21° C. and 8 h of dark at 18° C. (70% humidity) or a similarly air-conditioned greenhouse. The T1 seeds are collected from mature plants. Subsequently transformed plants were identified on selection media by growing T1 seeds on MS-agar plates supplemented with kanamycin (50 μg/ml).
Plant lipids were extracted from plant material as described by Cahoon et al. (1999, Proc. Natl. Acad. Sci. USA 96, 22:12935-12940) and Browse et al. (1986, Anal, Bio-chemistry 442:141-145). Qualitative and quantitative lipid or fatty acid analysis is described in Christie, William W., Advances in Lipid Methodology. Ayr/Scotland :Oily Press.—(Oily Press Lipid Library; Christie, William W., Gas Chromatography and Lipids. A Practical Guide—Ayr, Scotland :Oily Press, 1989 Repr. 1992.—IX,307).
The total lipid content of dry T2 generation seeds from Arabidopsis thaliana plants over-expressing SEQ ID NO: 1, SEQ ID NO: 4 or SEQ ID NO: 6 will be increased compared to the empty vector Arabidopsis thaliana control plants not expressing SEQ ID NO: 1, SEQ ID NO: 4 or SEQ ID NO: 6. As an example the T2 seed lipid content determined by conventional gas chromatography as mg fatty acids per mg dry seeds of the plants overexpressing SEQ ID NO: 4 is given in table 4. Each value is the mean of two separate extractions of the seed of the given line. The control value is the mean of the seeds of 4 empty vector control plants grown simultaneously, each extracted and measured also in duplicate.

Row | Molecule | Specific activity of purified ter2-protein [1] | increase in seed storage lipids compared to the controls (Arabidopsis thaliana; independent T2 lines, seed specific promoter, relative to empty pSun300-USP vector controls (FIG. 9)) | Total seed lipids, % fatty acids (Arabidopsis thaliana; transgenic line 7, dry T2 seeds) | Total seed lipids, % fatty acids (Arabidopsis thaliana; transgenic line 10, dry T2 seeds) | Total seed lipids, % fatty acids (Arabidopsis thaliana; transgenic line 22, dry T2 seeds)
1 | B1 | 1510 nmol/mg/min | – | – | – | –
2 | B2 | – | at least 10% | 35.5 ± 3.2% | 32.4 ± 1.1% | 31.4 ± 0.9%
